Test results reported in publication PMC7617965, “Interaction with AK2A links AIFM1 to cellular energy metabolism” (Molecular cell, 2025).
Blank lines part the entries; values can stand above or below the molecule they belong to. No end group written: not given here.

What was measured:
[1] = target: endogenous AIFM1 (human (endogenous in HEK293)) (UniProt O95831); assay: SEC; native lysates of HEK293 cells (WT, AIFM1 KO, AIFM1 KO with AIFM1-HA, AK2 KO with AK2A or AK2B; cycloheximide 4 h in one panel) on HiLoad 16/600 Superdex 200; fractions analysed by immunoblot, in part after a thiol shift with mmPEG24
[2] = target: MIA40 (Homo sapiens) (UniProt Q8N4Q1); settings: cited from earlier work
[3] = target: T1, AIFM1(103-613) (human, UniProt O95831 103-613); assay: cell-based or functional assay
[4] = target: T1, AIFM1(103-613); assay: SEC; AIFM1 incubated with AK2A, MIA40 or the interaction site peptides with NADH; unbound NADH removed by gel filtration; samples at 0 and 7 h analysed by gel filtration, absorbance at 280 nm; settings: both partners purified
[5] = target: T1, AIFM1(103-613); assay: SEC; purified proteins, AIFM1 to AK2 or MIA40 1:2 to 1:4, 100 mM NaCl, 20 mM Tris/Cl pH 7.4, with 0.1 mM NADH, 20 min, 4°C, Superdex 200; settings: both partners purified

Molecule: AIFM1 (from UniProt O95831)
- Kd [2]: 180 nM

B2: MIA40 C4S,C53S,C55S (natural protein, UniProt Q8N4Q1 1-142, looked up)
chain: MSYSRQEGKDRIIFVTKEDHETPSSAELVADDPNDPYEEHGLILPNGNINWNSPSLGGMASGPCGEQFKSAFSCFHYSTEEIKGSDCVDQFRAMQECMQKYPDLYPQEDEDEEEEREKKPAEQAEETAPIEATATKEEEGSS
notes: MIA40 (CHCHD4) with C4S, C53S and C55S; Only aa 2-20 are seen in the cryo-EM map; also called MIA40 SPS; purified MIA40; source: E. coli Rosetta2 (DE3), purified (Ni Sepharose)
- stoichiometry N [5]: 2 per AIFM1 dimer
- half-life (t1/2) of the complex after removal of excess NADH [4]: > 7 h

The next lines start with the values.

- percent of AK2 in the fractions of the complex [1]: 5%
Molecule: adenylate kinase 2 (AK2), endogenous (from UniProt P54819 1-239) (enzyme)

- apparent kcat of the NADH:DCIP oxidoreductase activity of AIFM1 with the peptide (3.3 μM); AIFM1 alone 0.50 s^−1 (H2O) [3]: 0.89 s⁻¹
- half-life (t1/2) of the complex after removal of excess NADH [4]: > 7 h
B1: MIA40 WT peptide (peptide)
peptide: SYSRQEGKDRIIFVTKEDHETPSSAELVA-NH2
notes: N-terminal region of MIA40 (CHCHD4); serine stands at position 4 where MIA40 has C4; also called MIA40 peptide; source: synthetic peptide

- apparent kcat of the NADH:DCIP oxidoreductase activity of AIFM1 with the peptide (3.3 μM); AIFM1 alone 0.37 s^−1 (DMSO) [3]: 0.71 s⁻¹
- half-life (t1/2) of the complex after removal of excess NADH [4]: > 7 h
B3: AK2A WT peptide (peptide)
peptide: ATSKDLVMFI-NH2
notes: C-terminus of AK2 isoform A; serine stands where AK2A bears C232; also called AK2A peptide; source: synthetic peptide
